Target: soluble neuronal SNARE complex (unlabeled) (UniProt P32851)
Sequence (P32851 1-265 S249C/K253C, chain 1 of 3): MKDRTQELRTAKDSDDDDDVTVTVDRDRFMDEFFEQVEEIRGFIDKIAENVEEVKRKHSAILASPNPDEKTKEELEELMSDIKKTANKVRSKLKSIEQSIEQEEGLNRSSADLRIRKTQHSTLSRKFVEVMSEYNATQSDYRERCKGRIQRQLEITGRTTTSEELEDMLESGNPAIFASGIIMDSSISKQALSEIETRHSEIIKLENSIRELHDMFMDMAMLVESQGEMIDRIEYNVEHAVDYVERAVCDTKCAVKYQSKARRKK
Sequence (P60881 other isoform, or with tags, fused parts or gaps, chain 2 of 3, further chain): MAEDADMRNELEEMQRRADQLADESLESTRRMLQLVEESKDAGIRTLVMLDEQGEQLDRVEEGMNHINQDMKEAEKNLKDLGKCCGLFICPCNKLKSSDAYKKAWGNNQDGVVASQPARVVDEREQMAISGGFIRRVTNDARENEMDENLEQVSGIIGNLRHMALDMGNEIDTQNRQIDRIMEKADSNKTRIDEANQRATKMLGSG
Sequence (P63045 1-96, chain 3 of 3, further chain): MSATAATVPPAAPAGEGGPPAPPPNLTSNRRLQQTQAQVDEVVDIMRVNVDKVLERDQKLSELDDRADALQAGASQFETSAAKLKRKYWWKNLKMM

Sequence of α-soluble NSF attachment protein (α-SNAP) (P54921 whole entry): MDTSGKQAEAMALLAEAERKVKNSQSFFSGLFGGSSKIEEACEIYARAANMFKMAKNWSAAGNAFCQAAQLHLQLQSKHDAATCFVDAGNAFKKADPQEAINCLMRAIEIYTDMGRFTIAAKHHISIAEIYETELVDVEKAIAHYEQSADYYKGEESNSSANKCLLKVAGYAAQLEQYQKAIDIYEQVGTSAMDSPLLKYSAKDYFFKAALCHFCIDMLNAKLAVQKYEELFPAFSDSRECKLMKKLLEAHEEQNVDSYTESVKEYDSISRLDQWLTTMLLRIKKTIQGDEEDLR
Sequence of N-Ethylmaleimide-sensitive factor (NSF) (P18708 whole entry): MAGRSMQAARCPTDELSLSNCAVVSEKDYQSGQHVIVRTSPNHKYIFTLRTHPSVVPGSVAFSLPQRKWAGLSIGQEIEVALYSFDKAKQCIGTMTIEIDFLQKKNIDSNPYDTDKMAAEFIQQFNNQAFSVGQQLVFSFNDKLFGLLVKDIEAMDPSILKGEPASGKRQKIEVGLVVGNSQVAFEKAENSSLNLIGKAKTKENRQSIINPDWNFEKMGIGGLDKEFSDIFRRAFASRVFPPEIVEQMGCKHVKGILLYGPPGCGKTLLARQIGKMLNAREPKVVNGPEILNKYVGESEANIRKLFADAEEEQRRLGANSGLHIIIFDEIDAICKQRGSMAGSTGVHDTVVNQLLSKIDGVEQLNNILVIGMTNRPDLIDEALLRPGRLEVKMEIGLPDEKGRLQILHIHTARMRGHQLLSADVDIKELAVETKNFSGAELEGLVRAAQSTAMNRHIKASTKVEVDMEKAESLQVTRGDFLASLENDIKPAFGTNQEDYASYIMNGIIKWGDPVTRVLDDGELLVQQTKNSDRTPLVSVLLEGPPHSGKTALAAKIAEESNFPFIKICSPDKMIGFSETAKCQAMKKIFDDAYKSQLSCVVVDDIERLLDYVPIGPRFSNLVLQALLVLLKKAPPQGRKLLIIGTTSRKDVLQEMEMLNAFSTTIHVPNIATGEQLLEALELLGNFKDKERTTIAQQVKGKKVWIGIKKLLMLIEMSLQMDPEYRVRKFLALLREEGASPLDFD

| Substance | SNARE-dependent activation of the ATPase activity of NSF (coupled ATPase assay, 37 °C; activation was dependent on α-SNAP) [fold] | SNARE-dependent activation of the ATPase activity of NSF (coupled ATPase assay, 37 °C, with α-SNAP, KCl and NaCl omitted) [fold] |
| --- | --- | --- |
| α-soluble NSF attachment protein (α-SNAP) (from UniProt P54921 1-295) (natural protein) | 26 |  |
| N-Ethylmaleimide-sensitive factor (NSF) (from UniProt P18708 1-744) (enzyme) |  | 26 |
